{
  "source": "patent US8574601B2",
  "about": "“Sustained-release polymer micelle disruptable by HDL” (Nanocarrier Co., Ltd., priority 2010, dated 2013)",
  "test": "Rat intravenous administration test of polymer micelle encapsulating G-CSF (Example 1), plasma G-CSF concentration",
  "assay_type": "in vivo",
  "conditions": "100 μg/kg i.v. tail vein, male Wistar rats; FIG. 3",
  "experimental": "PEG-pGlu (10-40, 30% Chol) was used as a block copolymer. The block copolymer was weighed in a vial. A 20 mM 2-morpholinoethanesulfonic acid monohydrate (MES) buffer (pH 5) was added thereto so as to achieve a polymer concentration of 2 mg/mL and the mixture was vigorously stirred at 4° C. overnight. The polymer solution was subjected to ultrasonic irradiation (in an ice water bath, Low, interval of 1 second, 10 minutes) using a biodisruptor (High Power Unit manufactured by NIHONSEIKI KAISHA LTD.) and then treated with a 0.22-μm membrane filter. Thus, an empty micelle solution having a polymer concentration of 2 mg/mL was obtained. […]\nThe solution of the polymer micelles encapsulating G-CSF obtained above was administered to male Wistar rats via the tail vein. […] The plasma G-CSF concentration was measured using a G-CSF-ELISA kit (manufactured by RayBiotech, Inc.). […]\nFIG. 3 illustrates the results of Example 1 (average±SD). FIG. 3 also illustrates theoretical values for the time-course of plasma concentration of a mixed polymer micelle (1:1), which theoretical values were calculated from the results of the time-courses of the plasma concentration of the test examples using PEG-pGlu (10-40, 30% Chol) and PEG-pGlu (10-40, 60% C8).",
  "data": [
    {"molecule": "G-CSF: G-CSF solution (100 μg/mL) administered directly (protein, UniProt P09919 31-207, looked up) Granulocyte …: TPLGPASSLPQSFLLKCLEQVRKIQGDGAALQEKLVSECATYKLCHPEELVLLGHSLGIPWAPLSSCPSQALQLAGCLSQLHSGLFLYQGLLQALEGISPELGPTLDTLQLDVADFATTIWQQMEELGMAPALQPTQGAMPAFASAFQRRAGGVLVASHLQSFLEVSYRVLRHLAQP", "values": [
      {"measurement": "retention time in plasma", "result": "extremely short"}
    ]}
  ]
}
